Data: patent US11275076B2, “Systems and methods for assessing blood platelet function” (Medtronic, Inc., priority 2016, dated 2022)

Test system: fresh whole blood
Experiment: drop distance cycle tests (ferromagnetic washer) assessing clot retraction in blood samples
Format: cell-based
Settings: FIG. 4; for clot retraction (object drop distance over time): compared with fresh whole blood without platelet inhibitor, tests began after assumed clot initiation
Text: Referring now to FIG. 3, a schematic drawing of a predicted trace 100 generated by successive drop distance test cycles of an object (e.g., the ferromagnetic object 32 described above) in blood over time that may be representative of data obtainable by an embodiment of a blood analysis system or apparatus of the present disclosure (e.g., the blood analysis system 20 of FIGS. 1 and 2). For example, and with additional reference to FIGS. 1 and 2, each test cycle includes the object 32 caused to move by the electromagnetic 34 toward the top of the chamber 30 and then allowed to drop; the drop distance of the object 32 is determined or sensed (e.g., an absolute drop distance is determined or sensed once the object 32 is at rest within the blood 40, or is determined or sensed at the end of a predetermined test cycle period). This so-determined drop distance serves as a single data point on the trace 100. The same drop distance test cycle is repeated for the same blood sample 40, at regular or irregular time intervals, over the course of an assessment time period with the result of each successive drop distance test cycle providing an additional data point from which the trace 100 is generated. (i.e., the determined “object drop distance” is plotted relative to the Y-axis at the corresponding point in time over the assessment time period along the X-axis).
As a point of reference, FIG. 4 presents the results of the drop distance cycle tests described above (using a ferromagnetic washer as the object) with three different blood samples. The first blood sample (“FWB”) consisted of fresh whole blood. The second blood sample (“FWB+5 ug/mL Reopro”) consisted of the fresh whole blood of the first sample and the platelet inhibitor Reopro at a concentration of 5 μg/mL. […] As explained in U.S. Pat. No. 8,921,115, clot strength can be another indicator of platelet function, and can be assessed (along with platelet retraction) with some systems and methods of the present disclosure. […]

B1: Reopro: the platelet inhibitor Reopro (antibody, chains of the INN, looked up, V domains shown)
VH: EVQLQQSGTVLARPGASVKMSCEASGYTFTNYWMHWVKQRPGQGLEWIGAIYPGNSDTSYIQKFKGKAKLTAVTSTTSVYMELSSLTNEDSAVYYCTLYDGYYVFAYWGQGTLVTVSA
VL: EIVLTQSPVTLSVTPGDSVSLSCRASRDISNNLHWFQQTSHESPRLLIKYASQSMSGIPSRFSGSGSGTDFTLSINSVETEDFGMYFCQQTNSWPYTFGGGTKLEIK
modifications: Fab
Comparison of 5 μg/mL and 10 μg/mL Reopro in fresh whole blood
  object movement profile, dependence on platelet inhibitor concentration: dose dependent
Fresh whole blood + 5 μg/mL Reopro
  clot retraction (object drop distance over time): first blood sample (with normal platelet function) showed greater clot retraction that the second and third blood samples
Fresh whole blood + 10 μg/mL Reopro
  clot retraction (object drop distance over time): first blood sample (with normal platelet function) showed greater clot retraction that the second and third blood samples
